In experiment [1] the target is CRF250-SOSIP, soluble HIV-1 envelope glycoprotein trimer (SOSIP.v7 based on the CRF250 HIV-1 isolate) (HIV-1). As to the kind of experiment: flow cytometry of Jeko-1 cells edited at the native heavy and kappa loci, double staining with CRF250 SOSIP-APC and CRF250 SOSIP-PE. (In flow cytometry, cells or beads pass a laser one at a time.)
Experiment [2] has the same target. The experiment in a line: flow cytometry of edited Jeko-1 cells, HDRT by AAV, double staining with CRF250 SOSIP-APC and CRF250 SOSIP-PE.
Experiment [3] has the same target. The experiment in a line: flow cytometry of edited Jeko-1 cells, HDRT as dsDNA, double staining with CRF250 SOSIP-APC and CRF250 SOSIP-PE.
Experiment [4] has the same target. The experiment in a line: flow cytometry of primary murine B cells edited at native loci, HDRT by AAV, double staining with CRF250 SOSIP-APC and CRF250 SOSIP-PE.
The target is the same in experiment [5]. As to the kind of experiment: flow cytometry of primary murine B cells edited at native loci, HDRT as dsDNA, double staining with CRF250 SOSIP-APC and CRF250 SOSIP-PE.
The target of experiment [6] is 16055-ConM-v8.1ds SOSIP trimer (HIV-1). As to the kind of experiment: flow cytometry, primary murine B cells edited in the HCDR3, labeled 16055-ConM-v8.1ds SOSIP against surface IgM.
For experiment [7], the target named is SOSIP. As to the kind of experiment: flow cytometry, APC-labeled SOSIP trimer against anti-IgM.
For experiment [8], the target named is CRF250-SOSIP, soluble HIV-1 envelope glycoprotein trimer (SOSIP.v7 based on the CRF250 HIV-1 isolate) (HIV-1). As to the kind of experiment: flow cytometry of control primary murine B cells (RNP without HDRT), lower rows (IgK gRNAs), double staining with CRF250 SOSIP-APC and CRF250 SOSIP-PE.
For experiment [9] the target is unchanged. The experiment in a line: flow cytometry of control primary murine B cells (RNP without HDRT), double staining with CRF250 SOSIP-APC and CRF250 SOSIP-FITC.
Experiment [10] shares this target. As to the kind of experiment: flow cytometry of control Jeko-1 cells (RNP without HDRT), double staining with CRF250 SOSIP-APC and CRF250 SOSIP-PE.
The target is the same in experiment [11]. As to the kind of experiment: flow cytometry of control primary murine B cells (RNP of the intron approach without HDRT), double staining with CRF250 SOSIP-APC and CRF250 SOSIP-PE.
Experiment [12] shares this target. As to the kind of experiment: flow cytometry of control primary murine B cells (RNP without HDRT), upper row (IgH gRNAs), double staining with CRF250 SOSIP-APC and CRF250 SOSIP-PE.
Experiment [13] shares this target. The experiment in a line: flow cytometry of control primary murine B cells (RNP without HDRT), double staining with CRF250 SOSIP-APC and CRF250 SOSIP-PE.
Experiment [14] has the same target. The experiment in a line: flow cytometry of control Jeko-1 cells (RNP without HDRT), double staining with CRF250 SOSIP-APC and CRF250 SOSIP-PE. The source holds these as a separate data set.
The target is the same in experiment [15]. The experiment in a line: flow cytometry of Jeko-1 cells edited with gRNA targeting JH6, staining with CRF250 SOSIP-APC against anti-IgM.
The target is the same in experiment [16].
Experiment [17] shares this target. As to the kind of experiment: flow cytometry of Jeko-1 cells edited at the native heavy-chain locus, double staining with CRF250 SOSIP-APC and CRF250 SOSIP-PE.
Experiment [18] shares this target. This is another data set of the same source.

“And” between values parts separate entries of the source, which are not always exact repeats. Identical values can stand only once. Like-named read-outs stand apart in the source and are kept apart here.

Consider “10-1074 heavy and light chain variable genes introduced at the native heavy and kappa loci of Jeko-1 (antibody)”, for which the % of cells in the SOSIP-positive gate in experiment [1] turned out to be 3.09%; in experiment [2], 11.1%; in [3], 3.05%.
Consider “10-1074 heavy and light chain variable genes introduced at the native heavy and kappa loci of primar (antibody)”, for which the figures for the % of cells in the SOSIP-positive gate in experiment [4] and in [5] were 2.38% and 0.95%, respectively.
“B-cell receptors of primary murine B cells edited to express the HCDR3 of the predicted unmutated common ancestor of the VRC26 family (VRC26-UCA) (antibody)”: the % of cells in the SOSIP gate in experiment [6] was 2.26%.
On to “B-cell receptors of primary murine B cells edited to express the PG9 HCDR3 (antibody)”, for which the % of cells in the SOSIP gate in experiment [6] came out at 1.49%.
As to “B-cell receptors of primary murine B cells edited to express the PG16 HCDR3 (antibody)”, in experiment [6], the % of cells in the SOSIP gate is 1.02%.
In turn, Negative control (antibody) registered a % of cells above the SOSIP gate line in [7] of 0.12%.
No HDRT (antibody): the % of cells in the SOSIP-positive gate in experiment [8] was 0.45%; in experiment [9] it was 0.17%; in [10], 0.12%; in experiment [11], 0.58%; in [12], 0.44%; in experiment [13], 0.34%. Besides, the % of cells in the SOSIP-positive gate in [14] turned out to be 0.24%.
For “VRC26.25 heavy-chain variable gene introduced at the native heavy-chain locus of Jeko-1 cells (B-cell receptor on the cell surface) (antibody)”, the % of cells in the SOSIP-positive gate in experiment [15] is 5.24%; in experiment [16], 4.43% and 1.12%; in [17], 7.12%; in experiment [2], 37.8%; in [3], 7.12%.
Regarding “VRC26.25-y heavy and light chain variable genes introduced at the native loci of primary murine B cells (B-cell receptor) (antibody)”, the % of cells in the SOSIP-positive gate in experiment [4] amounted to 7.55%; in experiment [5] it was 1.78%.
With “VRC26.25-y heavy chain alone introduced into primary murine B cells (B-cell receptor with endogenous murine light chains) (antibody)”, the % of cells in the SOSIP-positive gate in [18] is 1.59% and 1.47% and 1%.

Source of the values: US20260117259A1.
